Assay results: the DeepSol protein solubility set

Assay: soluble on expression in E. coli; label from the status in PepcDB or PDB records

Sequence	soluble on expression in E. coli
MRGLLILLLSLICLATPVLAQPVAAEQPLPDIRQRGFVYCVSGILNTFNPQMASSGLTVDTLAAQLYDRLLDVDPYTYRLIPELAESWQVLDNGATYRFHLRKDVPFQTTDWFTPTRMMNADDVVFSFQRVFDSKHPYHKVNGGEYPYFDSLQFASAVKSVKKLDDYTVEFKLKAPDASFLWHLATHYAPVLSSEYADVLTQKGKEEQIDREPVGTGPFLLDEYRSGQYIRLFRNSHYWKGVPRMPQVVIDLGVGGTGRLSKLLTGECDVLAYPAASQLSILRDDPPRLRLTLRPGMNVAYLAFNTRKPPLSDQRVRQAIALSINNQRLMQSIYYGTAETAASILPRASWAYDNQAQVTEYNPEKAKEILKDLGITQLQLNLWVPTASQSYNPSPLKTAELIQADLAQVGISVTIVPVEGRFQEARLMEMNHDLTLSGWSTDSNDPDSFFRPLLSCAAIRSQTNYAHWCDPAFDELLQKALRSQQLSERIEYYQQAQRILEQQLPLLPLASSLRLQAYRYDIKGLVLSPFGNSSFAGVYRESDEGKTP	not soluble
MSFTEDQEKIALEILSKDKHEFYEILKVDRKATDSEIKKAYRKLAIKLHPDKNSHPKAGEAFKVINRAFEVLSNEEKRSIYDRIGRDPDDRQMPSRGAASGFRGSAGGSPMGGGFEDMFFNSRFGGQRAGPPEDIFDFLFNAGGSPFGASPFGPSASTFSFGGPGGFRVYTNNRGGSPFMRQQPRSRQQQQQAEENAVNSQLKN	not soluble
MGSDKIHHHHHHMLSAKIEVYDSRFYQLVGTEARLEELFDKAIWAEGPVWLEKQQAVIFSDVKGNTMYRWTAEQGTQIFRQPSQFANGNAVDAAGNLITCEHGRRAISLTDHAGNIRVLVNKLEGKRLNSPNDVVVKSDGTIWFTDPPYGILSDAEGKKSPSEIIGCYVYCYDPITDDIHIATFNVMRPNGLAFCENETKLVVADMSVVEFKRTGLHHLVVFDVIDNQLYNRTSIAAISPGIPDGFCIDHNNVIYCSCETGLLVLLLDGTFLGRILLDKTASNCTFGLDQKTLFITATNSLYCLTFK	not soluble
SNANVGVFVLMHGDSTASSMLKTAQELLGTSIGTAMNMPLTMEVQTMYEQLRNQVITQKESLNNGILLLTDMGSLNSFGNMLFEETGIRTKAITMTSTMIVLEAIRMASVGRSLEDIYQNIQLSFESVVREQFRSSLQK	soluble
MAHHHHHHMRLASPFSRAAWQLQETHNLSPLLRRRACAAPVAATSPSAFCTARRCLSQQASHWLNKLRYGADDAPTMGSWDSAYEDDAMDTRKLYCKALVHASGGSRLARDWIAGCAALTSPDPSLIYTALQHAATEADVEELREHILGRLLAQESPRRGGRSGGSCDNEVRTSFGMYEESEREVVVPGTGNVAVKRAVAPNCAGQSSIHERDGKDGASEATSPPITSEGIRDAEHYLLQRSREVRCFMYDAMTASLFHSNNDLRTVEAARRHTFWIGLTQFGLSFDELTALWRLVEAELLLKKEKIKVLGQPWGE	soluble
MGSDKIHHHHHHMKQYGEKFIDEFSKAEFEKLAKQGQLIDVRTEEEYALGHINGSILHPVDEIESFNKEKNKTYYVICRSGNRSANASKYLAKQGYNVINLDGGYKAYEENDSYDTQEEYKSIEIKADRKQFNYRGFQCPGPIVKISQEMKNIEVGDQIEVKVTDPGFPSDIKSWVKQTRHTLVKLDENNNGINAIIQKEKAKDLDINYSAKGTTIVLFSGELDKAVAALIIANGARAAGKDVTIFFTFWGLNALKKVQTVNVKKQGIAKMFDLMLPQKNIRMPLSKMNMFGLGNMMMRYVMKKKNVDSLPTLINQAIEQNIKLIACTMSMDVMGIQKEELRDEVEYGGVGTYIGATENANHNLFI	not soluble
MKHFDFSLRIWPISLWFVKHSGVKNPMNEVIIREITSEDKEMFLCAMQSSQALHHPWVKAPIIPEEFDEYFSRYQKPNQKSYLLLSDNNLAGVFNISEIVRGYFQNAYLGFYVVAAYAGKGYMSTGLKLILTKVFKDMGLHRLEANIQPENTRSIWLVKKNGFRYEGFSPRYLRVNDVWQGHEHWAMTYEDFIKDNNEVLEKDHIDIVAYNTEWPLLAKAEMVKLRASFPANSVIDIQHVGSTAIPGMASKPIIDIQIAVRSLEEMKIIAVPILQKLDYEYWEDNPDPERMFFVKGMPPYGNGRTHHVHIVEASSRHWKGKTFFRDYLLSHPEAAEKYQQLKIKLAQEHKYDREQYTDAKSEFINQILKLAQN	not soluble
MAHHHHHHMAHVITRINAREILDSRGNPTVEVDLETNLGIFRAAVPSGASTGIYEALELRDNDKSRYLGKGVQKAIKNINEIIAPKLIGMNCTEQKKIDNLMVEELDGSKNEWGWSKSKLGANAILAISMAVCRAGAAANKVSLYKYLAQLAGKKSDQMVLPVPCLNVINGGSHAGNKLSFQEFMIVPVGAPSFKEALRYGAEVYHTLKSEIKKKYGIDATNVGDEGGFAPNILNANEALDLLVTAIKSAGYEGKVKIAMDVAASEFYNSENKTYDLDFKTPNNDKSLVKTGAQLVDLYIDLVKKYPIVSIEDPFDQDDWENYAKLTAAIGKDVQIVGDDLLVTNPTRITKALEKNACNALLLKVNQIGSITEAIEACLLSQKNNWGVMVSHRSGETEDVFIADLVVALRTGQIKTGAPCRSERNAKYNQLLRIEESLGNNAVFAGEKFRLQLN	not soluble
MHAIILTMRVGIVGFGNMGQAFALCFSKKLGKENIIVTDKVQEKRNLATEMGIAFASDVKFLADNSDVVLVAVKPKDSQEVLQKLKDYKGIILSIMAGVSIEKMEKILGKDKKIVRVMPNVNVAVGSGVMAITDNGNLSEEERSKVEELLLSCGTLYRIEERLFDAFTALAGSGPAFVFSFIDALALAGVHQGFSYEQALRIALDTVMGSAKLLKEFQVNPNELIAKVTSPGGTTIEGIKYLEEKGFKGTVMECINRTSQKAKKLLEHHHHHH	not soluble
MSLGVKVDESFCLSDRDHIRKRPNMYVGSVNREAHERFIMGKFRKVEYVEGLVKIINEILDNSIDEAIRTDFKFANRIEVKIDHNLVTISDNGRGIPQDDVRTPEGKIVPKPVAAWTMAKSGSNFDDENRVTMGMNGVGSFLTNCYSSIFIGETSNGKRKVTINCTDGAQNMDYRTSPTKEQGTTVKFTPDFSIFGVDGIDEETKEVIKDRLMALAVAFPSVKFTYNGETLPNKFAMYGAMYGDSTITQTNNKISFILASTEDGFKQKSFVNGLDTKNGGVHVDCMIDGIYAELEPMIKKKHAIEIPKARVKECLTLVVFLHNFNAPAFDSQTKEKLTNTAGEFNNHAGLNYKKIAKQIMDTSEIITPIIESALIRKQAAEAAAITKEGHHHHHH	soluble
MSLDFSHEFFGSLDPQALAHPDSIKWQHYGEGVIPMWIADMDFPVAPPILRALEDRLTRGLGYPLGRDDRLIADLQTKWASQGLTDVPADGIHFTPSVVPGLYAGVHGLTEPGDRVVTMTPIYHPFHLAINDLGREVAAAPLREGDTRWEIDWDALERAAEGARLLMLCHPHNPCGRVWDADELARLRELVLAHDLYVISDELHADLRFTDAPFEAFAADPRVRDRTLTVTGPCKAFNTAGLGIGVMVTHDPELLARVQRRVAGLGGHPSALSFTMWRVALEDGGPWLARTVEYLRGNRDFMTAFLRERLPWVRFTVPEATYLAWLDLREHPEAGRIQEFLLEEAKVAVHNGPTFAPGEQGAAYQGFIRVNFATSRAILTEALERMARALDTRQEGHHHHHH	not soluble
MKVYEFGKKENPAIMLLPGTCCHWKNNFSNVIDLLIEDFFVVCVSYDGFDETEKSEFQDMVTEVRKIENYINERFQGKIHAVYGCSLGG	not soluble
MTVRIAINGFGRIGRNVVRALYESGRRAEITVVAINELADAAGMAHLLKYDTSHGRFAWEVRHEREQLFVGDDVIRILHERTLADLPWRELGVDVVLDCTGVYGNREHGEAHIAAGAKKVLFSHPGSNDLDATVVFGVNQNQLRAEHRIVSNASCTTNCIIPVIKLLDDAYGIESGTVTTIHSAMNDQQVIDAYHSDLRRTRAASQSIIPVDTKLAAGITRIFPQFNDRFEAIAVRVPTINVTAIDLSVTVKKPVKASEVNQLLQKAAQGAFHGIVDYTESPLVSIDFNHDPHSAIVDGTQTRVSGAHLIKTLVWCDNEWGFANRMLDTTLAMAAVGFRLDASASTKL	not soluble
GPGSMPPKSAVKKVDSAAATGKRKKLSFAESTVKAAAAAIQTTHVNVPVRAAAKHAPLAAAPRKKGQNAKKTTATTSSAARQRAATDLKRSGIVKAKRAEEEVAAPPVPSDEENSRDDEDDMLNGGAAVDSDTDDLSDMADRTPSDDELGAGKQASSSASRQRDSNGTVEPYRAVRLSFLPPEFQEPQLYKFLNQFGATVLNCFCVRSKRTHRSRGIAYVEFDKESAIPLVVEECNGMVLGGKAVRARAVTMRRRMPSRQMVDRRRALAYAYKTRGAPLKQHDVRRKGPVGLLIKAVRTEKNNNNYLKSLGIDFQTDFFQSQLATLPPVLLKKKRSRSKKSEKGTVATAGMAKAVVKTTDIATVASKSSPKRATRKAPATKTK	soluble
MKLVGSYTSPFVRKLSILLLEKGITFEFINELPYNADNGVAQFNPLGKVPVLVTEEGECWFDSPIIAEYIELMNVAPAMLPRDPLESLRVRKIEALADGIMDAGLVSVREQARPAAQQSEDELLRQREKINRSLDVLEGYLVDGTLKTDTVNLATIAIACAVGYLNFRRVAPGWCVDRPHLVKLVENLFSRESFARTEPPKA	soluble
MTFEEYQKEAQKTALYPEAYRLVYPALGLAGEAGELANKVKKVLRDHGGRLSEEAREAILAELGDVLWYVAQVATDLGESLEAVAQANLAKLRSRKERGRLGGDGDDR	soluble
MLSFTSRLKKDLFIKAQSLVPQHQLSRVVGKVAESENILIKAAVIQAFKTKYGIDLSIAEQADALKYKSFNEFFTRALKEGVRVVDSATGSIVSPADGAISQLGTIHDGEVFQAKGQSFSVEKLIGDPQLAQPFKQGQFATVYLSPRDYHRVHMPFTGTLTETLYIPGELFSVNQVTAENIPGLFARNERMVCLFDTELGRMAVVLVGAMIVAGIETVVTGKVKPTGRLELNHHDVTLQKGDELGRFYLGSTAIILFEKDKMVWDQQFKANSIVVMGEKLGQSTNPLEHHHHHH	not soluble
MKGKKVLITSGGCLEKWDQVRGHTNMAKGTIGRIIAEELLAKGAHVIYLHGYFAEKPSDVHRGLELHPFEGIVDLQDKMKSIISHEKVDAVIMAAAGSDWIVEKICDQDGNVLNMNGKISSDIAPIIHFQKAPKVLKQIKEWDPETVLVGFKLESDLNEEELFERAKNRMKEARANVMIANSPHSLYSRGAVHYVIGQDGKGKLCNGKDETAKEIVKSLEVLCNRVTAF	not soluble
MPRGYKNPRVVPDNVERVISAYTPVPGTLAWGVVWEDPFAEFVRECARDLGLPATASDDVIRGNLRLIASFVAWVIHEYDCPLRRDEIFDYILAEAYAMSVIYVRDGHGKGTSNKVRGIRRSMLTKIGWKMNKHFGEPHKHTLPQEGALEPYKQWQLNKVDAWAGSQPNERRRRNARVAIALALGAGLRTSEIAGLTADDCEVTDSGMVLIHAPGYRGGEPRITVVDHRFEDTITDRLAELADLRAAGEPGQYLYCPHLLGRTTDMVNDYMKKKITSSGADCYLQPDLRRLRNTWITGHIKAGVEEGAICQAAGLKSLNQFRDLVDEAAKARAEQSYARLRGGEHRPVLRLVQG	not soluble
MSLTLIYGHRGAKGEAPENTLASFQRCLEHGVNRCELDLHLSRDGELMVIHDPTLKRTTGRRGKVAEHDAATLATYDARKGGPGWVRPTPIPRLEELFEKCPFEHWQLEVKSASRERAARTVTRIRELTERFGNRDKVTVTSGSRTVLKALNELTPELSRGLVAEYAWLDPLKVAQHYGCALLALNWTLCTPERLLKAQRQGLHVSVWTVNEPALMRRLADFGVDSLITDFPGLASATLGNEGHHHHHH	not soluble
